Assay results reported in PMC5342696.

Biological target: membrane IgG (mIgG) on IgG-expressing B-cell lines (human (endogenous in CRL 2632 and CRL 2289)) [IgG part: P01857]
Test: hemadsorption/hemagglutination (protein G-RBC rosetting); mIgG-expressing B-cells exposed to protein G-RBCs at 4°C without added mAb, rosettes scored by phase contrast microscopy

For “protein G on red blood cells (protein G-RBC) (from UniProt P19909 34-562) (natural protein)”, the HA background (percent rosetted cells) was less than 30%.
